# Test results taken from US20230348564A1, “ANTI-CANCER PROTEINS” (UNICHEM LABORATORIES LTD, priority 2020, published 2023).
# B1: SEQ ID NO. 2: recombinant lectin; variant of the S. rolfsii lectin amino acid sequence (reported as Rec-2 in WO 2010/095143) (protein)
# chain: TYKITVRVYQTNPDAFFHPVEKTVWKYANGGTWTITDDQHVLTMGGSGTSGTLRFHADNGESFTATFGVHNYKRWCDIVTNLAADETGMVINQQYYSQKNREEARERQLSNYQVKNAKGRNFQIVYTEAEGNDLHANLIIG
# modifications: In vitro synthesis
# How the values were obtained:
# [1] = tested on: EA.hy926 (Human endothelial cells); test: endothelial cell proliferation by MTT assay; format: cell-based; conditions: for % inhibition of FBS stimulated cell growth / Mean (MTT absorbance): 72 h
# Description: The cell line used for the study was EA.hy926 (Human endothelial cells) which was procured from National Centre for Cell Science, Pune (India). The cell line was maintained in DMEM+10% FBS (heat inactivated) at 37° C. with 5% CO2, and 95% humidity. […] Untreated cells with complete medium (10% FBS) served as complete medium control, cells with sera free medium served as SFM control and the cells treated with Paclitaxel served as positive control.
# The percentage cytotoxicity corresponding to each treatment was calculated.
# [2] = tested on: Glioma (C6); test: cytotoxicity in Brain Tumor Cell lines by MTT assay; format: cell-based, Rat; conditions: 72 h
# Description: The SEQ ID NO. […] Untreated cells were used as control. […] Cells were incubated for 3 h at 37° C.
# [3] = tested on: NF-KB; test: SelectScreen Cell-based Pathway Profiling (GeneBLAzer bla reporter); set-up: species or system Human; conditions: 0.5 μg/mL-50 μg/mL
# Description: (§1) The mechanism of action of the recombinant lectin having the amino acid sequence of SEQ ID NO.2 is studied by determining its effect on the modulation of key signaling pathways involved in the pathogenesis of cancer. The study was performed using SelectScreen® Cell-based Pathway Profiling Services at Life Technologies, USA. Modulatory effect of Lectin having the amino acid sequence of SEQ ID NO. 2 on various cell signaling pathways was investigated in cell lines overexpressing specific markers using GeneBLAzer Beta-lactamase (bla) Reporter Technology and Tango platforms. The cell lines tested were MDA-MB-231 (Human Breast cancer), KB (Human Cervical cancer), PA-1 (Human ovarian cancer), PANC-1 (Human pancreatic cancer), HT-29 (Human colorectal cancer), T-24 (Human Bladder cancer)
# (§2) 10 mg of recombinant lectin having the amino acid sequence of SEQ ID NO.2 was dissolved in 200 μL of TBS buffer (25 mM, pH 8.0) to obtain stock solution of 50 mg/mL. The stock solutions were diluted in Serum Free Medium (STM) to achieve final concentrations in cells ranging from 0.00158 μg/mL-50 μg/mL. Cells (32 μL) were diluted in Assay Media to appropriate cell density and were added to the assay plate. Cells were incubated at 37° C./5% CO2 for 24 h. 40 nL of 1000×sample and 4 μL of assay medium was added to the cells in the assay plate and incubated for 30 minutes at 37° C./5% CO2 in a humidified incubator. Then, 4 μL of the 10×EC80 concentration of activator was added to all wells containing sample to bring the final assay volume to 40 μL. The assay plate was incubated for 16 hours at 37° C./5% CO2 in a humidified incubator. Further, 8 μL of the Substrate Loading Solution (LiveBLAzer™—FRET B/G) was added to the assay plate. The assay plate was incubated for 2 hours at room temperature, in the dark. The assay plate was read on a fluorescence plate reader (Tecan Safire2). Fluorescence emission values at 460 nm and 530 nm were obtained using a standard florescence plate reader and % modulation was determined.
# (§3) % Modulation=[(A−B)/A]*100
# (§4) Where, A=Fluorescence reading in Control (untreated cells) B=Fluorescence reading in TI treated cells
# [4] = tested on: PKC/Ca2+; test: as above; set-up: species or system Human
# Description: as §1, §2, §3, §4
# [5] = tested on: CCR5; test: as above; set-up: species or system Human; conditions: 0.058 μg/mL-50 μg/mL
# Description: as §1, §2, §3, §4
# [6] = tested on: TNF-alpha/JNK; test: as above; set-up: species or system Human; conditions: 0.5 μg/mL-50 μg/mL
# Description: as §1, §2, §3, §4
# [7] = tested on: IL-4/STAT6; test: as above; set-up: species or system Human; conditions: 0.0158 μg/mL-0.5 μg/mL
# Description: as §1, §2, §3, §4
# [8] = tested on: MAPK/EGFR/Ras/Raf; test: as above; set-up: species or system Human; conditions: 0.158 μg/mL-50 μg/mL
# Description: as §1, §2, §3, §4
# [9] = tested on: ADBR1; test: as above; set-up: species or system Human; conditions: 0.158 μg/mL-50 μg/mL
# Description: as §1, §2, §3, §4
# [10] = tested on: PI3K/AKT/FOXO3; test: as above; set-up: species or system Human; conditions: 0.5 μg/mL-50 μg/mL
# Description: as §1, §2, §3, §4
molecule,measurement,setting,value
B1,% inhibition of FBS stimulated cell growth,[1]; 2.5 μg/mL,−9.83%
same,Mean (MTT absorbance),[1]; 2.5 μg/mL,1.761
same,% inhibition of FBS stimulated cell growth,[1]; 5 μg/mL,−12.16%
same,Mean (MTT absorbance),[1]; 5 μg/mL,1.799
same,% inhibition of FBS stimulated cell growth,[1]; 10 μg/mL,−16.59%
same,Mean (MTT absorbance),[1]; 10 μg/mL,1.870
same,inhibition of endothelial cell proliferation as compared to control,[1]; 20 μg/mL to 100 μg/mL,15.51% to 58.53%
same,% inhibition of FBS stimulated cell growth,[1]; 20 μg/mL,15.51%
same,Mean (MTT absorbance),[1]; 20 μg/mL,1.355
same,% inhibition of FBS stimulated cell growth,[1]; 40 μg/mL,29.22%
same,Mean (MTT absorbance),[1]; 40 μg/mL,1.135
same,% inhibition of FBS stimulated cell growth,[1]; 80 μg/mL,56.50%
same,Mean (MTT absorbance),[1]; 80 μg/mL,0.698
same,% inhibition of FBS stimulated cell growth,[1]; 100 μg/mL,58.53%
same,Mean (MTT absorbance),[1]; 100 μg/mL,0.665
same,% of cytotoxicity,[2]; 2.5 μg/mL-100 μg/mL,18.8-48.3%
same,IC50 Value,[2],>100 µg/mL
same,"Effect (wrt control), inhibition",[3],3%-13% inhibition
same,"Effect (wrt control), inhibition",[3]; listed as recombinant lectin,3% to 13%
same,effective inhibition,[4]; 0.00158 μg/mL to 0.5 μg/mL,5% to 19%
same,"Effect (wrt control), inhibition",[4]; 0.00158 μg/mL-0.158 μg/mL,5%-19% inhibition
same,"Effect (wrt control), inhibition",[5],21%-70% inhibition
same,"Effect (wrt control), inhibition",[5]; listed as recombinant lectin,21%-70%
same,"Effect (wrt control), inhibition",[6],12%-45% inhibition
same,"Effect (wrt control), inhibition",[6]; listed as recombinant lectin,12% to 45%
same,"Effect (wrt control), inhibition",[7],16%-28% inhibition
same,"Effect (wrt control), inhibition",[7]; listed as recombinant lectin,16% to 28%
same,"Effect (wrt control), inhibition",[8],2%-48% inhibition
same,"Effect (wrt control), inhibition",[8]; listed as recombinant lectin,2% to 48%
same,"Effect (wrt control), inhibition",[9],26%-49% inhibition
same,"Effect (wrt control), inhibition",[9]; listed as recombinant lectin,26% to 49%
same,"Effect (wrt control), inhibition",[10],2%-73% inhibition
same,"Effect (wrt control), inhibition",[10]; listed as recombinant lectin,2% to 73%
